Measurements as given in PMC3669275.

Columns and labels:
[1] = molecular target: HIV-1 HXB2 Env (gp160; gp41) expressed on CHO-Env cells (HIV-1 HXB2) (UniProt P04578)
[2] = molecular target: HIV-1 HXB2 Env (gp160; gp41) expressed on CHO-Env cells (HIV-1 HXB2) (UniProt P04578); remark: listed apart in the source
[3] = molecular target: 3NC, recombinant protein with a triplicate N36-GGSGG-C34 (HIV-1); experiment: SPR; BIACORE X; 3NC (100 µg/ml) amine-coupled to a CM5 chip; C60 or POB1 (333–461) injected at 20 µl/min; 10 mM HEPES pH 7.4, 0.15 M NaCl, 3.4 mM EDTA, 0.005% P20

## C60, recombinant POB1 (462–521) (domain or fragment)
[1]
  IC50 of inhibition of HIV-1 Env-mediated cell-cell fusion (syncytium formation, CHO-Env with 3T3.T4.CXCR4 cells): 1.09 µM
[2]
  IC50 of inhibition of infection of MT-2 cells by HIV-1 IIIB (X4-tropic), p24 ELISA: 15.3 µM
  IC50 of inhibition of infection of TZM-bl cells by HIV-1 Bal (R5-tropic; the Env is that of strain Bal), luciferase: 9.21 µM
[3]
  Kd: 0.0155 µM
